T1: Halo-TRA2B RRM (UniProt P62995 111-201)
T1 sequence: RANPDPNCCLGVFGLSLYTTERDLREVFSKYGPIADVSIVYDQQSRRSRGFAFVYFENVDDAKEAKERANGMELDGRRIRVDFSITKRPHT


Tests used:
Details in all cases: protein: recombinant; tags: Halo (N-terminal 10xHis-TEV removed), OregonGreen on Halo; label: 3' CF 647 hydrazide (periodate-oxidized end); single-stranded
Halo-TRA2B RRM [1] = target: T1, Halo-TRA2B RRM; assay: EMSA; protein 3.6-102.4 uM; clearly higher affinity than SAFB1 RRM; EMSA: 25 mM Tris-Cl pH 7.4, 50 mM KCl, 5% glycerol, 1 mM DTT, ~100 nM RNA, 30 min on ice, 8% native PAGE 0.5x TBE; pull-down: 25 mM Tris-Cl pH 7.4, ~75 mM KCl
Halo-SAFB1 RRM [2] = target: T2, Halo-SAFB1 RRM (UniProt Q15424 386-485); assay: EMSA; protein 3.6-102.4 uM; lower affinity than TRA2B RRM; EMSA: 25 mM Tris-Cl pH 7.4, 50 mM KCl, 5% glycerol, 1 mM DTT, ~100 nM RNA, 30 min on ice, 8% native PAGE 0.5x TBE; pull-down: 25 mM Tris-Cl pH 7.4, ~75 mM KCl
Halo-TRA2B RRM [3] = target: T1, Halo-TRA2B RRM; assay: EMSA; protein 3.6-102.4 uM; lost all interactions; EMSA: 25 mM Tris-Cl pH 7.4, 50 mM KCl, 5% glycerol, 1 mM DTT, ~100 nM RNA, 30 min on ice, 8% native PAGE 0.5x TBE; pull-down: 25 mM Tris-Cl pH 7.4, ~75 mM KCl
Halo-SAFB1 RRM [4] = target: T2, Halo-SAFB1 RRM; assay: EMSA; protein 3.6-102.4 uM; barely affected by m6A; EMSA: 25 mM Tris-Cl pH 7.4, 50 mM KCl, 5% glycerol, 1 mM DTT, ~100 nM RNA, 30 min on ice, 8% native PAGE 0.5x TBE; pull-down: 25 mM Tris-Cl pH 7.4, ~75 mM KCl

T2 sequence (Q15424 386-485): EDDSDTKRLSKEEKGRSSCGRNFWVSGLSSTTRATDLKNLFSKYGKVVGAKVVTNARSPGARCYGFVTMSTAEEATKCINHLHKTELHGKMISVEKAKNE

| Binder | binding result (Halo-TRA2B RRM [1]) | binding result (Halo-SAFB1 RRM [2]) | binding result (Halo-TRA2B RRM [3]) | binding result (Halo-SAFB1 RRM [4]) |
| --- | --- | --- | --- | --- |
| GGGAAGAAGAAGAAGAAGAAGAAGAU (ssRNA) [(AGA)x7 RNA, unmethylated] | binds | binds | – | – |
| GGGAAGAAGAAGAAGAAGAAGAAGAU (ssRNA, all A are N6-methyladenosine) [(m6AGm6A)x7 RNA, methylated] | – | – | no binding | binds |
